Assay results as given in US20190064177A1, “INCORPORATING COMPETITIVE BINDING INFORMATION INTO MOLECULAR ARRAY ANALYSIS TO GENERATE FUNCTION NETWORKS OF INTERACTIONS” (ARIZONA BOARD OF REGENTS ON BEHALF OF ARIZONA STATE …, priority 2017, published 2019).
Each block holds one molecule with its values, some of them ahead of it.

Tests used:
diaphorase [1] = assay: fluorescently labeled diaphorase binding to peptide array with or without excess FAD; conditions: for 1 microM FAD (array fluorescence of bound diaphorase) / 1 micro no FAD (array fluorescence of bound diaphorase): 1 micromolar labeled diaphorase; for 1 microM FAD (array fluorescence of bound diaphorase) / 10 microM FAD (array fluorescence of bound diaphorase): excess FAD present; for 1 microM FAD (array fluorescence of bound diaphorase) / 1 micro no FAD (array fluorescence of bound diaphorase) / 10 microM FAD (array fluorescence of bound diaphorase) / 10 microM no FAD (array fluorescence of bound diaphorase): 65535 is detector saturation; for 10 microM FAD (array fluorescence of bound diaphorase) / 10 microM no FAD (array fluorescence of bound diaphorase): 10 micromolar labeled diaphorase; for 1 microM noFAD/FAD / 10 microM noFAD/FAD: ratio of binding without FAD to binding with FAD; for 1 microM noFAD/FAD / Meas. ratio: 1 micromolar diaphorase; for 10 microM noFAD/FAD: 10 micromolar diaphorase; for Meas. ratio: ratio without/with FAD calculated from measured binding values
How it was run: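 Fluorescently labeled diaphorase, at 1 and 10 micromolar, bound to an array of about 126,000 peptides (16 amino acids; C, I, M, T omitted; GSG linker), with or without excess FAD. Fluorescence per feature scanned; 65535 marks detector saturation.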

Diaphorase [2] = assay: peptide array, 1 uM labeled diaphorase, no FAD
Diaphorase [3] = assay: peptide array, 10 uM labeled diaphorase, no FAD
Diaphorase [4] = assay: peptide array, 1 uM labeled diaphorase, with FAD
Diaphorase [5] = assay: peptide array, 10 uM labeled diaphorase, with FAD
Diaphorase [6] = assay: peptide array, 1 uM diaphorase, binding without FAD / with FAD
Diaphorase [7] = assay: peptide array, 10 uM diaphorase, binding without FAD / with FAD

Molecule: KPLAVQKVGSG (KPLAVQKVFGSG) [array peptide with C-terminal GSG linker]
1 microM FAD (array fluorescence of bound diaphorase) (diaphorase [1]): 3707.5
1 micro no FAD (array fluorescence of bound diaphorase) (diaphorase [1]): 34797.5
10 microM FAD (array fluorescence of bound diaphorase) (diaphorase [1]): 36814
10 microM no FAD (array fluorescence of bound diaphorase) (diaphorase [1]): 46161
1 microM noFAD/FAD (diaphorase [1]): 9.386
10 microM noFAD/FAD (diaphorase [1]): 1.254
Meas. ratio (diaphorase [1]): 9.39

Molecule: FNKVLEYKWLFEG
Meas. ratio (diaphorase [1]): 0.73

Molecule: YRLNLKHPVGGSG [array peptide with C-terminal GSG linker]
1 microM FAD (array fluorescence of bound diaphorase) (diaphorase [1]): 4146.5
1 micro no FAD (array fluorescence of bound diaphorase) (diaphorase [1]): 12652.75
10 microM FAD (array fluorescence of bound diaphorase) (diaphorase [1]): 56689
10 microM no FAD (array fluorescence of bound diaphorase) (diaphorase [1]): 65535
1 microM noFAD/FAD (diaphorase [1]): 3.051
10 microM noFAD/FAD (diaphorase [1]): 1.156
Meas. ratio (diaphorase [1]): 3.05

Molecule: KEAPGPRFGGSG [array peptide with C-terminal GSG linker]
1 microM FAD (array fluorescence of bound diaphorase) (diaphorase [1]): 8281.5
1 micro no FAD (array fluorescence of bound diaphorase) (diaphorase [1]): 1071.25
10 microM FAD (array fluorescence of bound diaphorase) (diaphorase [1]): 5467.5
10 microM no FAD (array fluorescence of bound diaphorase) (diaphorase [1]): 5614.5
1 microM noFAD/FAD (diaphorase [1]): 0.1294
10 microM noFAD/FAD (diaphorase [1]): 1.027
Meas. ratio (diaphorase [1]): 0.13

Molecule: FYNFGYQDLEDGS
Meas. ratio (diaphorase [1]): 0.75

B1: … (peptide)
peptide: VKDGANKHYWRVSGSG
fluorescence (Diaphorase [2]): 2220
fluorescence (Diaphorase [3]): 20400
fluorescence (Diaphorase [4]): 12300
fluorescence (Diaphorase [5]): 17800
noFAD/FAD (Diaphorase [6]): 0.18
noFAD/FAD (Diaphorase [7]): 1.14

B2: … (peptide)
peptide: RSHPKHNVGSG
fluorescence (Diaphorase [2]): 1950
fluorescence (Diaphorase [3]): 17000
fluorescence (Diaphorase [4]): 3880
fluorescence (Diaphorase [5]): 12200
noFAD/FAD (Diaphorase [6]): 0.504
noFAD/FAD (Diaphorase [7]): 1.39

B3: … (peptide)
peptide: VLSLNQVYSEGSG
fluorescence (Diaphorase [2]): 1670
fluorescence (Diaphorase [3]): 9850
fluorescence (Diaphorase [4]): 2710
fluorescence (Diaphorase [5]): 21800
noFAD/FAD (Diaphorase [6]): 0.619
noFAD/FAD (Diaphorase [7]): 0.452

B4: … (peptide)
peptide: EAVQKLLFSGSG
fluorescence (Diaphorase [2]): 1460
fluorescence (Diaphorase [3]): 5390
fluorescence (Diaphorase [4]): 2420
fluorescence (Diaphorase [5]): 17700
noFAD/FAD (Diaphorase [6]): 0.602
noFAD/FAD (Diaphorase [7]): 0.304

B5: … (peptide)
peptide: LDRLGEYQFSGSG
fluorescence (Diaphorase [2]): 709
fluorescence (Diaphorase [3]): 3000
fluorescence (Diaphorase [4]): 1160
fluorescence (Diaphorase [5]): 7140
noFAD/FAD (Diaphorase [6]): 0.609
noFAD/FAD (Diaphorase [7]): 0.419

B6: … (peptide)
peptide: YSVDYWYQVDGSG
fluorescence (Diaphorase [2]): 1800
fluorescence (Diaphorase [3]): 19800
fluorescence (Diaphorase [4]): 10400
fluorescence (Diaphorase [5]): 19200
noFAD/FAD (Diaphorase [6]): 0.173
noFAD/FAD (Diaphorase [7]): 1.03

B7: … (peptide)
peptide: NVSDLSQFYLSGSG
fluorescence (Diaphorase [2]): 2140
fluorescence (Diaphorase [3]): 6740
fluorescence (Diaphorase [4]): 3440
fluorescence (Diaphorase [5]): 27800
noFAD/FAD (Diaphorase [6]): 0.624
noFAD/FAD (Diaphorase [7]): 0.242

B8: … (peptide)
peptide: RQYQKHSYAKFSGSG
fluorescence (Diaphorase [2]): 6760
fluorescence (Diaphorase [3]): 57200
fluorescence (Diaphorase [4]): 2460
fluorescence (Diaphorase [5]): 27300
noFAD/FAD (Diaphorase [6]): 2.75
noFAD/FAD (Diaphorase [7]): 2.1

B9: … (peptide)
peptide: ELFGALFKGGSG
fluorescence (Diaphorase [2]): 2080
fluorescence (Diaphorase [3]): 12900
fluorescence (Diaphorase [4]): 3400
fluorescence (Diaphorase [5]): 25300
noFAD/FAD (Diaphorase [6]): 0.612
noFAD/FAD (Diaphorase [7]): 0.511

B10: … (peptide)
peptide: LLGFLGGSG
fluorescence (Diaphorase [2]): 2320
fluorescence (Diaphorase [3]): 26300
fluorescence (Diaphorase [4]): 4140
fluorescence (Diaphorase [5]): 40300
noFAD/FAD (Diaphorase [6]): 0.559
noFAD/FAD (Diaphorase [7]): 0.652

B11: … (peptide)
peptide: EDEGLSKFEGGSG
fluorescence (Diaphorase [2]): 561
fluorescence (Diaphorase [3]): 1220
fluorescence (Diaphorase [4]): 4170
fluorescence (Diaphorase [5]): 1380
noFAD/FAD (Diaphorase [6]): 0.135
noFAD/FAD (Diaphorase [7]): 0.885

B12: … (peptide)
peptide: YSALFGLQEDGSG
fluorescence (Diaphorase [2]): 1230
fluorescence (Diaphorase [3]): 8530
fluorescence (Diaphorase [4]): 2100
fluorescence (Diaphorase [5]): 16900
noFAD/FAD (Diaphorase [6]): 0.583
noFAD/FAD (Diaphorase [7]): 0.506

B13: … (peptide)
peptide: RWKYQKFNGGSG
fluorescence (Diaphorase [2]): 10200
fluorescence (Diaphorase [3]): 61300
fluorescence (Diaphorase [4]): 3860
fluorescence (Diaphorase [5]): 46200
noFAD/FAD (Diaphorase [6]): 2.63
noFAD/FAD (Diaphorase [7]): 1.33

B14: … (peptide)
peptide: KNRPYNKDLEDGSG
fluorescence (Diaphorase [2]): 733
fluorescence (Diaphorase [3]): 2520
fluorescence (Diaphorase [4]): 5150
fluorescence (Diaphorase [5]): 2590
noFAD/FAD (Diaphorase [6]): 0.142
noFAD/FAD (Diaphorase [7]): 0.974

Results, then the molecule that gave them:

fluorescence (Diaphorase [2]): 3230
fluorescence (Diaphorase [3]): 19500
fluorescence (Diaphorase [4]): 6310
fluorescence (Diaphorase [5]): 53400
noFAD/FAD (Diaphorase [6]): 0.511
noFAD/FAD (Diaphorase [7]): 0.366
B15: … (peptide)
peptide: QLLQLLFGGSG

fluorescence (Diaphorase [2]): 5760
fluorescence (Diaphorase [3]): 55900
fluorescence (Diaphorase [4]): 2200
fluorescence (Diaphorase [5]): 30400
noFAD/FAD (Diaphorase [6]): 2.62
noFAD/FAD (Diaphorase [7]): 1.84
B16: … (peptide)
peptide: RFKYPLDGGSG

fluorescence (Diaphorase [2]): 5780
fluorescence (Diaphorase [3]): 64300
fluorescence (Diaphorase [4]): 1960
fluorescence (Diaphorase [5]): 30600
noFAD/FAD (Diaphorase [6]): 2.94
noFAD/FAD (Diaphorase [7]): 2.1
B17: … (peptide)
peptide: RLQYLFKSDGSG

fluorescence (Diaphorase [2]): 2610
fluorescence (Diaphorase [3]): 17300
fluorescence (Diaphorase [4]): 4690
fluorescence (Diaphorase [5]): 36300
noFAD/FAD (Diaphorase [6]): 0.556
noFAD/FAD (Diaphorase [7]): 0.476
B18: … (peptide)
peptide: YVWGLELSGGSG

fluorescence (Diaphorase [2]): 5410
fluorescence (Diaphorase [3]): 53200
fluorescence (Diaphorase [4]): 14400
fluorescence (Diaphorase [5]): 41100
noFAD/FAD (Diaphorase [6]): 0.375
noFAD/FAD (Diaphorase [7]): 1.3
B19: … (peptide)
peptide: RPLQVQRGGS

fluorescence (Diaphorase [2]): 770
fluorescence (Diaphorase [3]): 2950
fluorescence (Diaphorase [4]): 1440
fluorescence (Diaphorase [5]): 3700
noFAD/FAD (Diaphorase [6]): 0.537
noFAD/FAD (Diaphorase [7]): 0.797
B20: … (peptide)
peptide: LAKQNRVEDGSG

fluorescence (Diaphorase [2]): 1340
fluorescence (Diaphorase [3]): 6070
fluorescence (Diaphorase [4]): 2660
fluorescence (Diaphorase [5]): 21500
noFAD/FAD (Diaphorase [6]): 0.503
noFAD/FAD (Diaphorase [7]): 0.282
B21: … (peptide)
peptide: SVLEGYQAVFGGSG

fluorescence (Diaphorase [2]): 4040
fluorescence (Diaphorase [3]): 50300
fluorescence (Diaphorase [4]): 1490
fluorescence (Diaphorase [5]): 20200
noFAD/FAD (Diaphorase [6]): 2.71
noFAD/FAD (Diaphorase [7]): 2.49
B22: … (peptide)
peptide: YRFQSGLPAKDGSG

fluorescence (Diaphorase [2]): 1030
fluorescence (Diaphorase [3]): 6650
fluorescence (Diaphorase [4]): 1730
fluorescence (Diaphorase [5]): 10400
noFAD/FAD (Diaphorase [6]): 0.599
noFAD/FAD (Diaphorase [7]): 0.639
B23: … (peptide)
peptide: EGYANKLLALFSGSG

fluorescence (Diaphorase [2]): 759
fluorescence (Diaphorase [3]): 2900
fluorescence (Diaphorase [4]): 2240
fluorescence (Diaphorase [5]): 3370
noFAD/FAD (Diaphorase [6]): 0.339
noFAD/FAD (Diaphorase [7]): 0.86
B24: … (peptide)
peptide: VERASYNLDGSG

fluorescence (Diaphorase [2]): 2260
fluorescence (Diaphorase [3]): 16500
fluorescence (Diaphorase [4]): 4180
fluorescence (Diaphorase [5]): 36700
noFAD/FAD (Diaphorase [6]): 0.541
noFAD/FAD (Diaphorase [7]): 0.45
B25: … (peptide)
peptide: AFYGLELGGSG

fluorescence (Diaphorase [2]): 4010
fluorescence (Diaphorase [3]): 41300
fluorescence (Diaphorase [4]): 1550
fluorescence (Diaphorase [5]): 18600
noFAD/FAD (Diaphorase [6]): 2.6
noFAD/FAD (Diaphorase [7]): 2.23
B26: … (peptide)
peptide: YNRNAKSSGGSG

fluorescence (Diaphorase [2]): 1070
fluorescence (Diaphorase [3]): 5610
fluorescence (Diaphorase [4]): 8280
fluorescence (Diaphorase [5]): 5470
noFAD/FAD (Diaphorase [6]): 0.129
noFAD/FAD (Diaphorase [7]): 1.03
B27: … (peptide)
peptide: KEAPGPRFGGSG

fluorescence (Diaphorase [2]): 607
fluorescence (Diaphorase [3]): 1850
fluorescence (Diaphorase [4]): 2050
fluorescence (Diaphorase [5]): 2140
noFAD/FAD (Diaphorase [6]): 0.296
noFAD/FAD (Diaphorase [7]): 0.865
B28: … (peptide)
peptide: DLDKAFGGSG

fluorescence (Diaphorase [2]): 5650
fluorescence (Diaphorase [3]): 58900
fluorescence (Diaphorase [4]): 2160
fluorescence (Diaphorase [5]): 31500
noFAD/FAD (Diaphorase [6]): 2.62
noFAD/FAD (Diaphorase [7]): 1.87
B29: … (peptide)
peptide: WRGFKFADGGSG
